# According to US20020188037A1, “Method and system for providing bioactive agent release coating” (priority 1999, published 2002):
# Experiment: Bioactive Agent Release Assay, dextran-TRITC under polymer topcoat on discs (Example 4)
# Format: physicochemical
# Details: pEVA/pBMA topcoat coated at 48% relative humidity compared with 10% relative humidity; PBS, 37° C.; FIG. 2
# Protocol: Two solutions were prepared in order to provide a coating composition in the form of a two part system. The first solution was an aqueous solution containing the bioactive agent, dextran-TRITC, at a concentration of 15 mg/ml. […] The poly(n-butyl methacrylate) and poly(ethylene-co-vinylacetate) were purified by extraction with organic solvents to remove impurities, e.g., monomer residues. The polymers of the second solution were dissolved in tetrahydrofuran at a concentration of 10 mg/ml.
# Fifteen-millimeter diameter stainless steel discs with an overall thickness of two millimeters were fabricated with a nine-millimeter diameter flat pedestal. […] A surface treatment such as Parylene could be applied to the disc or the surface could be left untreated. The discs were weighed on a microbalance. The aqueous bioactive agent solution was applied to the pedestal surface of the discs with a pipette. The water evaporated from the discs and the discs were re-weighed on a microbalance to obtain the amount of the bioactive agent on the disc. The polymer coating solution containing poly(ethylene-co-vinylacetate) and poly(n-butyl methacrylate) was applied to the entire surface of the disc, covering the dextran. […]
# Except as otherwise provided herein, each coated disc was placed in an amber vial with 4 mls of PBS. […] The concentration of bioactive agent in each PBS sample was determined using UV spectroscopy. […]
substance,measurement,value
tetramethylrhodamine isothiocyanate-Dextran [dextran-TRITC],release rate of the bioactive agent from the composite coating,faster rate
